Reference: patent publication US20260242478A1 (published 2026)

B1: Phage-3098 (peptide)
peptide: EHILCRPVWMCEGF
B2: Phage-3099 (peptide)
peptide: MGPVCKPAWMCLEF
B3: Phage-3088 (peptide)
peptide: VVPRCEPMWMCQGF
B4: Phage-3090 (peptide)
peptide: VSIMCTPLWMCEGF
B5: Phage-3100 (peptide)
peptide: PMPVCVPMWMCYGF
B6: Phage-3095 (peptide)
peptide: YDFRCIPSWMCMGI
B7: Phage-3089 (peptide)
peptide: TDQLCKPLWMCTGF
B8: Phage-3096 (peptide)
peptide: QGRVCEPSWMCTGF
B9: Phage-3097 (peptide)
peptide: MERMCRPAWMCTAF
B10: Phage-3094 (peptide)
peptide: GAMVCKPAWMCQGF
B11: Phage-3091 (peptide)
peptide: TELACKPLWMCNGF
B12: Phage-3101 (peptide)
peptide: ILPQCVPAWMCSGF
B13: Phage-3092 (peptide)
peptide: TGAICVPEWMCMGF
B14: Phage-3093 (peptide)
peptide: VEPYCKPAWMCTGF
B15: Phage-3069 (peptide)
peptide: ISPVCIPSWMCLGL
B16: Phage-3070 (peptide)
peptide: LEKACVPQWMCYGL
B17: Phage-3060 (peptide)
peptide: EEKMCVPLWMCSGF
B18: Phage-3061 (peptide)
peptide: ITKACIPEWMCHAF
B19: Phage-3065 (peptide)
peptide: GMVRCVPQWMCVGF
B20: Phage-3064 (peptide)
peptide: VVPMCSPSWMCQGF
B21: Phage-3062 (peptide)
peptide: VQVLCVPSWMCHGF
B22: Phage-3066 (peptide)
peptide: VERSCVPSWMCYGF
B23: Phage-3071 (peptide)
peptide: SPYFCIPAWMCHGF
B24: Phage-3073 (peptide)
peptide: WLMRCEPQWMCAGF
B25: Phage-3068 (peptide)
peptide: LSHMCRPAWMCEGF
B26: Phage-3067 (peptide)
peptide: LLAECVAAWMCSGF
B27: Phage-3063 (peptide)
peptide: VEIQCRPSWMCMGF
B28: Phage-3072 (peptide)
peptide: IMMRCEPVWMCEGF
B29: Phage-3059 (peptide)
peptide: EFAMCRPVWMCWGF
notes: Peptide-180 library clone, tested as clonal phage supernatant (peptide fused to pIII of the bacteriophage)
B30: Phage-3058 (peptide)
peptide: DWVRCVPEWMCLGF
notes: as for B29
B31: Phage-3081 (peptide-180 library clone) (peptide)
peptide: TDHLCVPSWMCLGF
B32: Phage-3075 (peptide-180 library clone) (peptide)
peptide: YEQLCKPLWMCQGF
B33: Phage-3082 (peptide-180 library clone) (peptide)
peptide: DGPLCVPQWMCLWL
B34: Phage-3084 (peptide-180 library clone) (peptide)
peptide: LDAMCRPLWMCSGF
B35: Phage-3077 (peptide-180 library clone) (peptide)
peptide: VNHLCKPTWMCAGF
B36: Phage-3074 (peptide-180 library clone) (peptide)
peptide: TASWCKPGGACKGF
B37: Phage-3078 (peptide-180 library clone) (peptide)
peptide: TYMMCVPEWMCQGF
B38: Phage-3085 (peptide-180 library clone) (peptide)
peptide: LEHMCRPSWMCTGF
B39: Phage-3087 (peptide-180 library clone) (peptide)
peptide: VDLICRPAWMCSGF
B40: Phage-3080 (peptide-180 library clone) (peptide)
peptide: EWMKCVPLWMCEGI
B41: Phage-3079 (peptide-180 library clone) (peptide)
peptide: HLMACKPAWMCLGL
B42: Phage-3086 (peptide-180 library clone) (peptide)
peptide: FWAQCVPPWMCSGF
B43: Phage-3076 (peptide-180 library clone) (peptide)
peptide: DEWICRPAWMCQGF
B44: Phage-3083 (peptide-180 library clone) (peptide)
peptide: GQNLCIPSWMCEGF

These binders were tested against T1, 006 PSMA Fab (assay: clonal phage ELISA on biotinylated PSMA Fab captured on neutravidin plates, anti-M13 HRP detection;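 note: crude clonal phage supernatants tested, before phage were added, wells were pretreated with PSMA antigen in blocking buffer or with blocking buffer only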).
T1 construct: In the panning ELISA the PSMA Fab was biotinylated and captured on neutravidin coated plates; also called Anti-PSMA Fab; anti-PSMA Fab
Description: (§1) Clonal phage were harvested as crude supernatants and screened via standard ELISAs. […] Prior to the addition of clonal phage. wells were incubated with blocking buffer and PSMA antigen or blocking buffer alone. Without washing or aspirating, clonal phage supernatants were then added to the wells and incubated for a short time. Wells were then washed followed by detection of bound phage using a horse radish conjugated anti-M13 antibody.

Row | Binder | Phage binding ELISA signal, Anti-PSMA Fab
1 | B1 | 2.09
2 | B2 | 2.09
3 | B3 | 2.1
4 | B4 | 2.1
5 | B5 | 2.09
6 | B6 | 2.1
7 | B7 | 2.1
8 | B8 | 2.09
9 | B9 | 2.09
10 | B10 | 2.1
11 | B11 | 2.1
12 | B12 | 2.09
13 | B13 | 2.1
14 | B14 | 2.1

What follows are binders tested against T2, 006 PSMA Fab (assay: clonal phage ELISA on biotinylated PSMA Fab captured on neutravidin, anti-M13 HRP detection, no competitor).
T2 construct: In the phage ELISA the Fab was biotinylated and captured on neutravidin coated plates; also called Anti-PSMA Fab
Description: as §1

Row | Binder | Phage binding ELISA signal, Anti-PSMA Fab
15 | B15 | 2.13
16 | B16 | 2.13
17 | B17 | 2.15
18 | B18 | 2.15
19 | B19 | 2.14
20 | B20 | 2.14
21 | B21 | 2.15
22 | B22 | 2.14
23 | B23 | 2.13
24 | B24 | 2.12
25 | B25 | 2.13
26 | B26 | 2.13
27 | B27 | 2.14
28 | B28 | 2.13

What follows are binders tested against T1, 006 PSMA Fab (assay: clonal phage ELISA on captured PSMA Fab pre-incubated with PSMA antigen as competitor, anti-M13 HRP detection;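 note: crude clonal phage supernatants tested by ELISA, wells first treated with blocking buffer plus PSMA antigen, bound phage read out via HRP-linked anti-M13 antibody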).
Description: as §1

Row | Binder | Phage binding ELISA signal, Anti-PSMA Fab in the presence of PSMA antigen
29 | B1 | 0.101
30 | B2 | 0.109
31 | B3 | 0.0982
32 | B4 | 0.0782
33 | B5 | 0.0842
34 | B6 | 0.0693
35 | B7 | 0.0815
36 | B8 | 0.0561
37 | B9 | 0.107
38 | B10 | 0.0731
39 | B11 | 0.0691
40 | B12 | 0.0784
41 | B13 | 0.0934
42 | B14 | 0.11

The binders below were run against T3, PSMA Fab (006 PSMA Fab) (assay: phage ELISA; biotinylated PSMA Fab on neutravidin plate, clonal phage supernatant, anti-M13 HRP detection; blocking buffer alone).
T3 construct: also called Anti-PSMA Fab; anti-PSMA Fab
Description: as §1

Row | Binder | Phage binding ELISA signal, Anti-PSMA Fab
43 | B29 | 2.15
44 | B30 | 2.15

Each binder was assayed against T4, PSMA Fab (006 PSMA Fab) (Fab biotinylated for capture on neutravidin plates (site not stated)) (assay: phage ELISA: clonal phage supernatant on biotinylated PSMA Fab captured on neutravidin plate, blocking buffer alone, anti-M13-HRP detection).
T4 construct: also called Anti-PSMA Fab; anti-PSMA Fab

Row | Binder | Phage binding ELISA signal, Anti-PSMA Fab
45 | B31 | 2.11
46 | B32 | 2.12
47 | B33 | 2.11
48 | B34 | 2.11
49 | B35 | 2.12
50 | B36 | 2.12
51 | B37 | 2.11
52 | B38 | 2.1
53 | B39 | 2.1
54 | B40 | 2.11
55 | B41 | 2.11
56 | B42 | 2.1
57 | B43 | 2.12
58 | B44 | 2.11

These binders were tested against T2, 006 PSMA Fab (assay: clonal phage ELISA on biotinylated PSMA Fab captured on neutravidin, wells pre-incubated with PSMA antigen as competitor, anti-M13 HRP detection).
Description: as §1

Row | Binder | Phage binding ELISA signal, Anti-PSMA Fab with PSMA antigen
59 | B15 | 0.174
60 | B16 | 0.0938
61 | B17 | 0.0787
62 | B18 | 0.0651
63 | B19 | 0.111
64 | B20 | 0.0725
65 | B21 | 0.0688
66 | B22 | 0.0806
67 | B23 | 0.121
68 | B24 | 0.131
69 | B25 | 0.0938
70 | B26 | 0.0712
71 | B27 | 0.0951
72 | B28 | 0.118

What follows are binders tested against T3, PSMA Fab (006 PSMA Fab) (assay: phage ELISA; biotinylated PSMA Fab on neutravidin plate pre-incubated with PSMA antigen as competitor, clonal phage supernatant, anti-M13 HRP detection).
Description: as §1

Row | Binder | Phage binding ELISA signal, Anti-PSMA Fab in the presence of PSMA antigen
73 | B29 | 0.142
74 | B30 | 0.106

The binders below were run against T4, PSMA Fab (006 PSMA Fab) (assay: phage ELISA: clonal phage supernatant on biotinylated PSMA Fab captured on neutravidin plate, wells pre-incubated with PSMA antigen as competitor, anti-M13-HRP detection).
Description: as §1

Row | Binder | Phage binding ELISA signal, Anti-PSMA Fab in presence of PSMA
75 | B31 | 0.0801
76 | B32 | 0.0628
77 | B33 | 0.0699
78 | B34 | 0.0799
79 | B35 | 0.0765
80 | B36 | 0.0801
81 | B37 | 0.101
82 | B38 | 0.0798
83 | B39 | 0.0726
84 | B40 | 0.0802
85 | B41 | 0.135
86 | B42 | 0.199
87 | B43 | 0.0632
88 | B44 | 0.08
